# Measurements as given in article PMC12136788.
# T1: UNK (called full-length) (UniProt Q9C0B0 30-357)
# T1 sequence: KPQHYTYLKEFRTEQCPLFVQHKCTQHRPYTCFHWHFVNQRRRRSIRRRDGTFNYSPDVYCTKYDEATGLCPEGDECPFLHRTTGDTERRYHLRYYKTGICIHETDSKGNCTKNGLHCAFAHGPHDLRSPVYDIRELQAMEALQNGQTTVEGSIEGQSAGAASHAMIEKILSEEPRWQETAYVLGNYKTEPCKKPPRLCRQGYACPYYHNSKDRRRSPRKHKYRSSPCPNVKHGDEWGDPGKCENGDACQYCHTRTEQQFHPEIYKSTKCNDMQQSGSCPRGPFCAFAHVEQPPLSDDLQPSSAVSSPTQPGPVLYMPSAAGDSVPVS
# How the values were obtained:
# MSI1 full-length [1] = target: T2, MSI1 full-length (mouse, UniProt Q61474 1-362); assay: fluorescence polarization; FP: 5 nM RNA, 20 mM Hepes (pH not given), 5 mM DTT, 137.5 mM NaCl, 0.01% Triton X-100, 10 ng/ul BSA, 2 U/ml SUPERase-In; 15 min at 4 C, read at 25 C; positional
# MSI1 swap = MSI1 swap (mouse, UniProt Q61474 1-19+109-191+104-108+20-103+192-362, internal_change); assay: as above
# UNK (called full-length) [2] = target: T1, UNK (called full-length); assay: fluorescence polarization; 50 nM unlabeled N16 RNA; FP: 5 nM RNA, 20 mM Hepes (pH not given), 5 mM DTT, 137.5 mM NaCl, 0.01% Triton X-100, 10 ng/ul BSA, 2 U/ml SUPERase-In; 15 min at 4 C, read at 25 C; positional
# UNK (called full-length) [3] = target: T1, UNK (called full-length); assay: fluorescence polarization; FP: 5 nM RNA, 20 mM Hepes (pH not given), 5 mM DTT, 137.5 mM NaCl, 0.01% Triton X-100, 10 ng/ul BSA, 2 U/ml SUPERase-In; 15 min at 4 C, read at 25 C; positional
# UNK (called full-length) [4] = target: T1, UNK (called full-length); assay: fluorescence polarization; 50 nM unlabeled N16 RNA; FP: 5 nM RNA, 20 mM Hepes (pH not given), 5 mM DTT, 137.5 mM NaCl, 0.01% Triton X-100, 10 ng/ul BSA, 2 U/ml SUPERase-In; 15 min at 4 C, read at 25 C; positional; remark: listed apart in the source
# MSI1 full-length [5] = target: T2, MSI1 full-length; assay: fluorescence polarization; FP: 5 nM RNA, 20 mM Hepes (pH not given), 5 mM DTT, 137.5 mM NaCl, 0.01% Triton X-100, 10 ng/ul BSA, 2 U/ml SUPERase-In; 15 min at 4 C, read at 25 C; positional; remark: listed apart in the source
# MSI2 full-length = MSI2 full-length (UniProt Q96DH6 1-328); assay: as above
# MSI2 full-length, sequence (Q96DH6 whole entry): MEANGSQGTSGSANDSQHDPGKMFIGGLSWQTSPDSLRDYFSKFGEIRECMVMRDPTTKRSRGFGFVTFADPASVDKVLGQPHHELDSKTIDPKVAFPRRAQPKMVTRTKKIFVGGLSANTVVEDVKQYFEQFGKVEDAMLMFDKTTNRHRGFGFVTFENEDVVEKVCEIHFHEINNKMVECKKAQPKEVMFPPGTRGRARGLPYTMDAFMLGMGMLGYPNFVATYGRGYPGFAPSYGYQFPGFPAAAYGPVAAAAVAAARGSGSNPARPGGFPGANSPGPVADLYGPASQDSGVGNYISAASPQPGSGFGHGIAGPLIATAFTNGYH
# T2 sequence (Q61474 whole entry): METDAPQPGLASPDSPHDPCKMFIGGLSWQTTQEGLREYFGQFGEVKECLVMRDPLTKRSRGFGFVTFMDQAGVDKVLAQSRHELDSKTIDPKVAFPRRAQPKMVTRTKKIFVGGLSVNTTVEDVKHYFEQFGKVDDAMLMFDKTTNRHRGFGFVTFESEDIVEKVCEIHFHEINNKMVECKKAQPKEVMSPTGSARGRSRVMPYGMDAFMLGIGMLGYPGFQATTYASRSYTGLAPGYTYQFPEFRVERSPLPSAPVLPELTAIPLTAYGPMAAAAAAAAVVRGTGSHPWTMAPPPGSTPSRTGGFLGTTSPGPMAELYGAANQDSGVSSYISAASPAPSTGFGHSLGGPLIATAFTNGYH
# MSI1 swap, sequence (Q61474 other isoform, or with tags, fused parts or gaps): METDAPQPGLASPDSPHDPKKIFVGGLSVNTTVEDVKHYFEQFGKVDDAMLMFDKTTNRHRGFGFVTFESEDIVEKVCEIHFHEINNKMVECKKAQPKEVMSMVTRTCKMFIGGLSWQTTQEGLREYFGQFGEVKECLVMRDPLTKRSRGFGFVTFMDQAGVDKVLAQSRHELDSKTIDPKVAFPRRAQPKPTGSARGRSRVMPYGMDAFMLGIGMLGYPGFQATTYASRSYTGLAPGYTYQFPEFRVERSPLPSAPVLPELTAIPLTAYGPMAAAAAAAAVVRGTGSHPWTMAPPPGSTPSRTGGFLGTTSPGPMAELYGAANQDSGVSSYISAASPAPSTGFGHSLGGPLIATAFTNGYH
binder,measurement,setting,value
AAAAAAAAUUAGAAAAAA (ssRNA) [mono-UAG FP RNA],Kd,MSI1 full-length [1],126 nM
same,binding signal,MSI1 swap,~2 fold weaker than MSI1 on mono-UAG
same,Kd,UNK (called full-length) [2],400 nM
UUUUUUUUUUUUUUUU (ssRNA) [polyU FP RNA],binding result,UNK (called full-length) [3],no binding
CCCCCCAAUUAGUUAAUA (ssRNA) [CCC-UAG-AUA FP RNA],binding signal,UNK (called full-length) [4],~1 fold vs UAG-AUA (little impact of upstream C)
AAAAAUUAGUUAAUA (ssRNA) [UAG-AUA FP RNA],Kd,UNK (called full-length) [2],90 nM
UUAGUUAGUU (ssRNA) [dual-UAG FP RNA],binding signal,MSI1 full-length [5],~10 fold tighter than mono-UAG
same,binding signal,MSI1 swap,~1 fold vs MSI1 on dual-UAG (no observable Kd difference)
CCCCCCAAUUAGAAAAAA (ssRNA) [CCC-UAG FP RNA],binding signal,UNK (called full-length) [4],~2 fold tighter than mono-UAG
UAGUUUAGUUUAGUU (ssRNA) [tri-UAG FP RNA],Kd,MSI2 full-length,2 nM
same,Kd,MSI1 full-length [1],5 nM
CCCCCCCCCCCCCCCC (ssRNA) [polyC FP RNA],binding result,UNK (called full-length) [3],no binding
